Measurements: US12156920B2, “Double-labeled probe for molecular imaging and use thereof” (Deutsches Krebsforschungszentrum, priority 2017, dated 2024)

Experiments:
[1] = Biodistribution (organ distribution) of 68Ga-labeled compounds; format: in vivo, mice; details: male, BALB/c nu/nu, mouse, in vivo, iv, 60 pmol, total radioactivity
Method: (§1) The precursor peptides [1 nmol in HEPES buffer (580 mg/ml), 90 μL] were added to 40 μL [^68Ga]Ga^3+ eluate (˜40 MBq). The pH was adjusted to 3.8 using 30% NaOH and 10% NaOH, respectively. The reaction mixture was incubated at 98° C. for 10 minutes. The radiochemical yield (RCY) was determined by HPLC. For the experimental tumor models 5×10^6 cells of LNCaP (in 50% Matrigel; Becton Dickinson, Heidelberg, Germany) were subcutaneously inoculated into the right trunk of 7- to 8-week-old male BALB/c nu/nu mice (Charles River). The tumors were allowed to grow until approximately 1 cm^3 in size. The ^68Ga-labeled compounds were injected into a tail vein (1-2 MBq; 60 pmol). […] Organs of interest were dissected, blotted dry, and weighed. The radioactivity was measured using a gamma counter and calculated as % ID/g. All animal experiments complied with the current laws of the Federal Republic of Germany.

[2] = system: LNCaP-tumor bearing balb/c nu/nu mice; test: as above; format: in vivo; details: mouse, in vivo
Method: as §1

PSMA = biological target: T1, PSMA (Homo sapiens, UniProt Q04609); test: Competitive cell binding assay on LNCaP cells (PSMA binding affinity); details: competition against 0.2 nM 68Ga-labeled PSMA-10
T1 construct: endogenous in cells; host or cells: LNCaP cells (ATCC CRL-1740)
T1 sequence (Q04609 whole entry): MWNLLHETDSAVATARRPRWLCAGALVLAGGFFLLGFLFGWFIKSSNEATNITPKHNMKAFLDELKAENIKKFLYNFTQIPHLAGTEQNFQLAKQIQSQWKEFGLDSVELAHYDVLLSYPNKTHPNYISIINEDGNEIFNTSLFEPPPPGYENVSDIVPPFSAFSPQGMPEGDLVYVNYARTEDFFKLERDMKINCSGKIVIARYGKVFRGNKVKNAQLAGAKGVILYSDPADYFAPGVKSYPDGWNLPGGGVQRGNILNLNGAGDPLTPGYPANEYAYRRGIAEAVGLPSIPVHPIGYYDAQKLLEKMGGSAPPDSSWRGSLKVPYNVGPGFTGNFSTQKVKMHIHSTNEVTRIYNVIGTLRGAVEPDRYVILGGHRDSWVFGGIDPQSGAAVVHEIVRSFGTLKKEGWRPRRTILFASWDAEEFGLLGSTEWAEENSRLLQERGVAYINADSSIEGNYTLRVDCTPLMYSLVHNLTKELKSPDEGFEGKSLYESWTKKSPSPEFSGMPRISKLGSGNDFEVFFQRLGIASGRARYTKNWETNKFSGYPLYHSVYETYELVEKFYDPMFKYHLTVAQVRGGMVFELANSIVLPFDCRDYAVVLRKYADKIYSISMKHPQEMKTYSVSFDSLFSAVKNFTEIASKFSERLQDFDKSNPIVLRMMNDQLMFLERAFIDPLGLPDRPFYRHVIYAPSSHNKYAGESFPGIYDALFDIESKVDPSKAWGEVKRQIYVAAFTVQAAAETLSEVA
Method: PSMA^+ LNCaP cells (ATCC CRL-1740) were cultured in RPMI medium supplemented with 10% fetal calf serum and 2 mmol/L L-glutamine (all from PAA). Cells were grown at 37° C. in humidified air with 5% CO2 and were harvested using trypsin-ethylenediaminetetraacetic acid (trypsin-EDTA; 0.25% trypsin, 0.02% EDTA, Invitrogen).
The competitive cell binding assay and internalization experiments were performed as described previously (4). Briefly, the cells (10^5 per well) were incubated with a 0.2 nM solution of ^68Ga-labeled radioligand [Glu-urea-Lys(Ahx)]2-HBED-CC (PSMA-10, precursor ordered from ABX, Radeberg, Germany) in the presence of 12 different concentrations of analyte (0-5000 nM, 100 μL/well). After incubation, the mixture was removed and the wells were washed 3 times with PBS using a multiscreen vacuum manifold (Millipore, Billerica, Mass.). Cell-bound radioactivity was measured using a gamma counter (Packard Cobra II, GMI, Minnesota, USA). The 50% inhibitory concentration (IC50) values were calculated by fitting the data using a nonlinear regression algorithm (GraphPad Software).

[3] = Organ distribution Tumor (tumor accumulation)
[4] = Tumor-to-Organ ratio T/Intestine

Compound	tissue uptake at 1 h ([1]; Organ distribution Blood)	tissue uptake at 1 h ([1]; Organ distribution Brain)	tissue uptake at 1 h ([1]; Organ distribution Heart)	tissue uptake at 1 h ([1]; Organ distribution Intestine)	tissue uptake at 1 h ([1]; Organ distribution Kidney)	tissue uptake at 1 h ([1]; Organ distribution Liver)	tissue uptake at 1 h ([1]; Organ distribution Lung)	tissue uptake at 1 h ([1]; Organ distribution Muscle)	tissue uptake at 1 h ([1]; Organ distribution Spleen)	tissue uptake at 1 h [1, 3]	tissue to tissue ratio at 1 h ([1]; Tumor-to-Organ ratio T/Blood)	tissue to tissue ratio at 1 h ([1]; Tumor-to-Organ ratio T/Brain)	tissue to tissue ratio at 1 h ([1]; Tumor-to-Organ ratio T/Heart)	tissue to tissue ratio at 1 h [1, 4]	tissue to tissue ratio at 1 h ([1]; Tumor-to-Organ ratio T/Kidney)	tissue to tissue ratio at 1 h ([1]; Tumor-to-Organ ratio T/Liver)	tissue to tissue ratio at 1 h ([1]; Tumor-to-Organ ratio T/Lung)	tissue to tissue ratio at 1 h ([1]; Tumor-to-Organ ratio T/Muscle)	tissue to tissue ratio at 1 h ([1]; Tumor-to-Organ ratio T/Spleen)	also measured
CC1(C)C(/C=C/C2=C(Oc3ccc(S(=O)(=O)O)cc3)C(=C\C=C3/N(CCCCS(=O)(=O)O)c4ccc(S(=O)(=O)O)cc4C3(C)C)/CCC2)=[N+](CCCCCC(=O)NCCOCCOCCNC(=O)CCc2ccc(O)c(CN(CCN(CC(=O)O)Cc3cc(CCC(=O)NCc4cn(CCCCC(=O)NC(CCC(=O)O)C(=O)NC(Cc5cnc[nH]5)C(=O)NCCCCC(NC(=O)NC(CCC(=O)O)C(=O)O)C(=O)O)nn4)ccc3O)CC(=O)O)c2)c2ccc(S(=O)(=O)O)cc21 (stereo not shown) [PSMA-(HE)1-HBED-CC-PEG2-IRDye800CW, Glu-urea-Lys-(HE)1-HBED-CC-PEG2-IRDye800CW]	1.52 %ID/g	0.3 %ID/g	0.94 %ID/g	1.29 %ID/g	84.3 %ID/g	1.19 %ID/g	2.46 %ID/g	1.03 %ID/g	8.17 %ID/g	3.92 %ID/g	2.58	13	4.19	3.05	0.05	3.3	1.6	3.81	0.48	
CC1(C)C(/C=C/C2=C(Oc3ccc(S(=O)(=O)O)cc3)C(=C\C=C3/N(CCCCS(=O)(=O)O)c4ccc(S(=O)(=O)O)cc4C3(C)C)/CCC2)=[N+](CCCCCC(=O)NCCOCCOCCNC(=O)CCc2ccc(O)c(CN(CCN(CC(=O)O)Cc3cc(CCC(=O)NCc4cn(CCCCC(=O)N[C@@H](CCC(=O)O)C(=O)N[C@@H](Cc5cnc[nH]5)C(=O)N[C@@H](CCC(=O)O)C(=O)N[C@@H](Cc5cnc[nH]5)C(=O)N[C@@H](CCC(=O)O)C(=O)N[C@@H](Cc5cnc[nH]5)C(=O)NCCCC[C@H](NC(=O)N[C@@H](CCC(=O)O)C(=O)O)C(=O)O)nn4)ccc3O)CC(=O)O)c2)c2ccc(S(=O)(=O)O)cc21 [PSMA-(HE)3-HBED-CC-PEG2-IRDye800CW, Glu-urea-Lys-(HE)3-HBED-CC-PEG2-IRDye800CW]	1.12 %ID/g	0.18 %ID/g	1.36 %ID/g	1.31 %ID/g	109 %ID/g	1.25 %ID/g	2.34 %ID/g	1.18 %ID/g	3.47 %ID/g	7.59 %ID/g	6.8	42.6	5.57	5.8	0.07	6.08	3.24	6.45	2.19	tissue uptake at 2 h ([1]; Organ distribution Blood): 0.65 %ID/g; tissue uptake at 2 h ([1]; Organ distribution Brain): 0.23 %ID/g; tissue uptake at 2 h ([1]; Organ distribution Heart): 0.53 %ID/g; tissue uptake at 2 h ([1]; Organ distribution Intestine): 0.67 %ID/g; tissue uptake at 2 h ([1]; Organ distribution Kidney): 55.8 %ID/g; tissue uptake at 2 h ([1]; Organ distribution Liver): 0.76 %ID/g; tissue uptake at 2 h ([1]; Organ distribution Lung): 0.89 %ID/g; tissue uptake at 2 h ([1]; Organ distribution Muscle): 0.47 %ID/g; tissue uptake at 2 h ([1]; Organ distribution Spleen): 0.76 %ID/g; tissue uptake at 2 h ([1]; Organ distribution Tumor): 3.1 %ID/g; Tumor-to-Organ ratio T/Blood [2]: 6.80; Tumor-to-Organ ratio T/Brain [2]: 42.63; Tumor-to-Organ ratio T/Heart [2]: 5.57; Tumor-to-Organ ratio T/Intestine [2]: 5.80; Tumor-to-Organ ratio T/Kidney [2]: 0.07; Tumor-to-Organ ratio T/Liver [2]: 6.08; Tumor-to-Organ ratio T/Lung [2]: 3.24; Tumor-to-Organ ratio T/Muscle [2]: 6.45; Tumor-to-Organ ratio T/Spleen [2]: 2.19; Ki (PSMA): 0.0367 ± 0.00977 µM
